Data taken from patent EP2975059A1 (Kymab Limited, dated 2016).

Key:
Assay in all cases: SPR ProteOn XPR36, antibody captured on anti-human IgG, PCSK9 variant as analyte, 25 C, 1:1 model
Human PCSK9 form r = target: T1, Human PCSK9 form r (human, UniProt Q8NBP7 31-692)
T1 construct: also called PCSK9 r

Human PCSK9 form f = Human PCSK9 form f (human, UniProt Q8NBP7 31-692)
Human PCSK9 form c = target: T2, Human PCSK9 form c (human, UniProt Q8NBP7 31-692)
T2 construct: also called PCSK9 c

Human PCSK9 form a = target: T3, Human PCSK9 form a (human, UniProt Q8NBP7 31-692)
T3 construct: also called PCSK9 a

Human PCSK9 form p = target: T4, Human PCSK9 form p (human, UniProt Q8NBP7 31-692)
T4 construct: also called PCSK9 p

B1: Antibody 316P (antibody, V domains shown)
VH: EVQLVESGGGLVQPGGSLRLSCAASGFTFNNYAMNWVRQAPGKGLDWVSTISGSGGTTNYADSVKGRFIISRDSSKHTLYLQMNSLRAEDTAVYYCAKDSNWGNFDLWGRGTLVTVSS
VL: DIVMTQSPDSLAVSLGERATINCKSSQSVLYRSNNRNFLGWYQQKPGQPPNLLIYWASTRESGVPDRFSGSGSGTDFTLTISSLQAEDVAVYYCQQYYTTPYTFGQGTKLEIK
With B1 the Kd (Human PCSK9 form r) was 0.197 nM, the koff (Human PCSK9 form r) was 0.000276 s⁻¹ and the kon (Human PCSK9 form r) was 1.4e+06 M⁻¹ s⁻¹. It also gave a Kd (Human PCSK9 form f) of 0.203 nM, a koff (Human PCSK9 form f) of 0.000282 s⁻¹ and a kon (Human PCSK9 form f) of 1.39e+06 M⁻¹ s⁻¹. The Kd (Human PCSK9 form c) was 0.184 nM, the koff (Human PCSK9 form c) was 0.000275 s⁻¹ and the kon (Human PCSK9 form c) was 1.49e+06 M⁻¹ s⁻¹. For the same binder, the Kd (Human PCSK9 form a) was 0.201 nM, the koff (Human PCSK9 form a) was 0.000275 s⁻¹ and the kon (Human PCSK9 form a) was 1.37e+06 M⁻¹ s⁻¹. It also gave a Kd (Human PCSK9 form p) of 0.196 nM, a koff (Human PCSK9 form p) of 0.000273 s⁻¹ and a kon (Human PCSK9 form p) of 1.39e+06 M⁻¹ s⁻¹.

B2: Evolocumab (antibody, V domains shown)
VH: QVQLVQSGAEVKKPGASVKVSCKASGYTLTSYGISWVRQAPGQGLEWMGWVSFYNGNTNYAQKLQGRGTMTTDPSTSTAYMELRSLRSDDTAVYYCARGYGMDVWGQGTTVTVSS
VL: QSALTQPASVSGSPGQSITISCTGTSSDVGGYNSVSWYQQHPGKAPKLMIYEVSNRPSGVSNRFSGSKSGNTASLTISGLQAEDEADYYCNSYTSTSMVFGGGTKLTVL
B2 was tested, and the Kd (Human PCSK9 form r) was 0.23 nM, the koff (Human PCSK9 form r) was 2.67e-05 s⁻¹ and the kon (Human PCSK9 form r) was 116000 M⁻¹ s⁻¹. For the same binder, the Kd (Human PCSK9 form f) was 0.229 nM, the koff (Human PCSK9 form f) was 2.66e-05 s⁻¹ and the kon (Human PCSK9 form f) was 116000 M⁻¹ s⁻¹. For the same binder, the Kd (Human PCSK9 form c) was 0.183 nM, the koff (Human PCSK9 form c) was 2.2e-05 s⁻¹ and the kon (Human PCSK9 form c) was 120000 M⁻¹ s⁻¹. It also gave a Kd (Human PCSK9 form a) of 0.229 nM, a koff (Human PCSK9 form a) of 2.62e-05 s⁻¹ and a kon (Human PCSK9 form a) of 114000 M⁻¹ s⁻¹. For the same binder, the Kd (Human PCSK9 form p) was 0.219 nM, the koff (Human PCSK9 form p) was 2.5e-05 s⁻¹ and the kon (Human PCSK9 form p) was 114000 M⁻¹ s⁻¹.
